These binders were tested against human CCR5 receptor (hCCR5) (human), P51681 (assay: inhibition of gp120CM235/sCD4 binding to GHOST CD4.CCR5 cells (FIG. 4C)).
Chain of human CCR5 receptor (hCCR5) (human), P51681 (P51681 whole entry): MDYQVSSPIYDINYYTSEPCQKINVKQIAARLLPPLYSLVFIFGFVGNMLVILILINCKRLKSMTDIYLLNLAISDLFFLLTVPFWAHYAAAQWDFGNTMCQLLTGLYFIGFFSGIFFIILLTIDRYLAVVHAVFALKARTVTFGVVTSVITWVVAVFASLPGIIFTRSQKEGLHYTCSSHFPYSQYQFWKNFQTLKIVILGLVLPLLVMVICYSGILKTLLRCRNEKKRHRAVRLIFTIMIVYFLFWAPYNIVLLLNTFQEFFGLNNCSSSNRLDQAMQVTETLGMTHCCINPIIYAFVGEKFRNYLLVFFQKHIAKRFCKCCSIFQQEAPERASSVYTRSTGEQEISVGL
Work on ASTTTNYT (modifications not checked) [DAPTA (Dala1-peptide T-amide)] yielded an IC50 of 0.051 nM.

What follows are binders tested against human CCR5 receptor (hCCR5) (human), P51681 (assay: inhibition of gp120BaL/sCD4 binding to Cf2Th/synR5 cells (FIG. 4A)).
ASTTTNYT (modifications not checked) [DAPTA (Dala1-peptide T-amide)] was tested, and the IC50 was 0.055 nM.

The binders below were run against human CCR5 receptor (hCCR5) (human), P51681 (assay: inhibition of gp120CM235/sCD4 binding to Cf2Th/synR5 cells (FIG. 4B)).
Binder ASTTTNYT (modifications not checked) [DAPTA (Dala1-peptide T-amide)] has an IC50 of 0.32 nM and a percent inhibition of specific binding greater than 80%.

What follows are binders tested against human CCR5 receptor (hCCR5) (human), P51681 (assay: inhibition of gp120/sCD4 complex binding to CCR5-expressing Cf2Th cells by competing peptide).
In the case of SSTYR (modifications not checked), the EC50 is reported as 0.1 nM.
NTSYR (modifications not checked) gave an EC50 of 0.1 nM.
TSNYS (modifications not checked) showed an EC50 of 0.2 nM.
In the case of YSSYR (modifications not checked), the EC50 is reported as 0.6 nM.
NSEYR (modifications not checked) showed an EC50 of 0.08 nM.
For TTSYR (modifications not checked), the EC50 was 0.1 nM.
For SSEYR (modifications not checked), the EC50 was 0.3 nM.
Binder NSNYS (modifications not checked) has an EC50 of 0.5 nM.
With NNRYR (modifications not checked) the EC50 was 0.2 nM.
For NSSYT (modifications not checked), the EC50 was 0.2 nM.
Work on NSSYR (modifications not checked) yielded an EC50 of 0.04 nM.
With TTSYT (modifications not checked) the EC50 was 0.05 nM.
With TISYR (modifications not checked) the EC50 was 0.4 nM.

— US20190000964A1
